Results as given in PMC4774423 (Frontiers in Immunology, 2016).

B1: single-chain recombinant form of human C1q globular region (C1q-scGR) (domain or fragment)
chain: KDQPRPAFSAIRRNPPMGGNVVIFDTVITNQEEPYQNHSGRFVCTVPGYYYFTFQVLSQWEICLSIVSSSRGQVRRSLGFCDTTNKGLFQVVSGGMVLQLQQGDQVWVEKDPKKGHIYQGSEADSVFSGFLIFPSAGSGKQKFQSVFTVTRQTHQPPAPNSLIRFNAVLTNPQGDYDTSTGKFTCKVPGLYYFVYHASHTANLCVLLYRSGVKVVTFCGHTSKTNQVNSGGVLLRLQVGEEVWLAVNDYYDMVGIQGSDSVFSGFLLFPDGSAKATQKIAFSATRTINVPLRRDQTIRFDHVITNMNNNYEPRSGKFTCKVPGLYYFTYHASSRGNLCVNLMRGRERAQKVVTFCDYAYNTFQVTTGGMVLKLEQGENVFLQATDKNSLLGMEGANSIFSGFLLFPDMEA
modifications: N-glycan (biantennary, sialylated) at Asn 124 of C1qA
notes: globular domain of human complement C1q chain A (gC1qA), residues 88-223 of mature C1qA; numbers count on: the mature protein; Gly-Ser-Gly linker between gC1qA and gC1qC; Gly-Ser-Ala linker between gC1qC and gC1qB; globular domain of human complement C1q chain B (gC1qB), residues 90-226 of mature C1qB; An insect-cell version (C1qA 85-223, melittin signal peptide) was also made but was low-yield …
B2: recombinant human calreticulin (natural protein, UniProt P27797 18-417, looked up)
chain: EPAVYFKEQFLDGDGWTSRWIESKHKSDFGKFVLSSGKFYGDEEKDKGLQTSQDARFYALSASFEPFSNKGQTLVVQFTVKHEQNIDCGGGYVKLFPNSLDQTDMHGDSEYNIMFGPDICGPGTKKVHVIFNYKGKNVLINKDIRCKDDEFTHLYTLIVRPDNTYEVKIDNSQVESGSLEDDWDFLPPKKIKDPDASKPEDWDERAKIDDPTDSKPEDWDKPEHIPDPDAKKPEDWDEEMDGEWEPPVIQNPEYKGEWKPRQIDNPDYKGTWIHPEIDNPEYSPDPSIYAYDNFGVLGLDLWQVKSGTIFDNFLITNDEAYAEEFGNETWGVTKAAEKQMKDKQDEEQRLKEEEEDKKRKEEEEAEDKEDDEDKDEDEEDEEDKEEDEEEDVPGQAKDEL
notes: human calreticulin, recombinant; also called CRT
B3: recombinant human receptor for the globular heads of C1q (gC1qR) (receptor, UniProt Q07021 74-282, looked up)
chain: LHTDGDKAFVDFLSDEIKEERKIQKHKTLPKMSGGWELELNGTEAKLVRKVAGEKITVTFNINNSIPPTFDGEEEPSQGQKVEEQEPELTSTPNFVVEVIKNDDGKKALVLDCHYPEDEVGQEDEAESDIFSIREVSFQSTGESEWKDTNYTLNTDSLDWALYDHLMDFLADRGVDNTFADELVELSTALEHQEYITFLEDLKSFVKSQ
notes: the mature protein is recalled to begin at residue 74 of the precursor; also called receptor for C1q globular heads
B4: gC1qC module of C1q-scGR (residues 87-217 of mature C1qC) (domain or fragment, human, UniProt P02747 115-245, looked up)
chain: KQKFQSVFTVTRQTHQPPAPNSLIRFNAVLTNPQGDYDTSTGKFTCKVPGLYYFVYHASHTANLCVLLYRSGVKVVTFCGHTSKTNQVNSGGVLLRLQVGEEVWLAVNDYYDMVGIQGSDSVFSGFLLFPD
notes: globular domain of human C1q chain C; numbers count on: the mature protein; In the crystal it is joined on one chain between gC1qA and gC1qB: see m1; also called subunit C; source: 293-F cells, as part of the single chain C1q-scGR, purified
B5: gC1qA module of C1q-scGR (residues 88-223 of mature C1qA) (domain or fragment, human, UniProt P02745 110-245, looked up)
chain: KDQPRPAFSAIRRNPPMGGNVVIFDTVITNQEEPYQNHSGRFVCTVPGYYYFTFQVLSQWEICLSIVSSSRGQVRRSLGFCDTTNKGLFQVVSGGMVLQLQQGDQVWVEKDPKKGHIYQGSEADSVFSGFLIFPSA
modifications: N-glycan at Asn 124
notes: globular domain of human C1q chain A; numbers count on: the mature protein; In the crystal it is joined on one chain with gC1qC (Gly-Ser-Gly linker) and gC1qB: see m1; also called subunit A; source: 293-F cells, as part of the single chain C1q-scGR, purified

Key:
Conditions in all cases: both partners purified
[1] = target: T1, recombinant human long pentraxin PTX3 (human, UniProt P26022 18-381); test: SPR; Biacore 3000, 25°C; CRT, gC1qR and PTX3 amine-coupled on CM5; C1q samples flowed at 20 μl/min in 50 mM Tris-HCl, 150 mM NaCl, 2 mM CaCl2, 0.005% P20, pH 7.4; global fit 1:1 Langmuir (two-state model for C1q-CRT); apparent KD
T1 construct: human pentraxin 3, recombinant

[2] = target: B3; test: as above
[3] = target: B2; test: as above
[4] = target: T2, C1q purified from human serum (full-length C1q) (human, UniProt P02745 23-245; P02746 28-253; P02747 29-245); test: as above
T2 construct: also called intact C1q; native C1q; source: purified from human serum; copies: 6 + 6 + 6

[5] = target: T3, globular regions of C1q prepared by collagenase digestion of serum-derived C1q (C1q-GR) (human, UniProt P02745 112-245; P02746 118-253; P02747 115-245); test: as above
T3 construct: globular region of human C1q chain A left after collagenase digestion; globular region of human C1q chain B left after collagenase digestion; globular region of human C1q chain C left after collagenase digestion; Heterotrimer of the three globular modules; Mw 48,000 used for concentration; also called serum-derived C1q-GR; plasma-derived C1q-GR; source: collagenase digestion of C1q purified from …

[6] = target: B5; test: crystal structure; C1q-scGR crystallised with and without calcium in the reservoir; 1.35 and 1.55 Å
[7] = target: T4, gC1qB module of C1q-scGR (residues 90-226 of mature C1qB) (human, UniProt P02746 117-253); test: as above
T4 construct: globular domain of human C1q chain B; numbers count on: the mature protein; In the crystal it is joined on one chain after gC1qC (Gly-Ser-Ala linker): see m1; also called subunit B; source: 293-F cells, as part of the single chain C1q-scGR, purified

T1 sequence (P26022 18-381): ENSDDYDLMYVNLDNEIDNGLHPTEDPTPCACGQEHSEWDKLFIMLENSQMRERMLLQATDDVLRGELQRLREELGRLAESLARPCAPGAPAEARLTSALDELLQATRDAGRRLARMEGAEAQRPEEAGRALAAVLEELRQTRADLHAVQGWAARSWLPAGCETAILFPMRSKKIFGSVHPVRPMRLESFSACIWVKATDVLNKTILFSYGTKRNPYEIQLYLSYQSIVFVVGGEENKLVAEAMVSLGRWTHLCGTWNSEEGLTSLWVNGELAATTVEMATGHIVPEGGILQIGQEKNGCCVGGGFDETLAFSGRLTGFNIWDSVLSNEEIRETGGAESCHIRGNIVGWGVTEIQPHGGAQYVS

Binder: B1
- Kd [1]: 444 nM
- koff [1]: 0.000552 s⁻¹
- kon [1]: 1320 M⁻¹ s⁻¹
- Kd [2]: 304 nM
- koff [2]: 0.00067 s⁻¹
- kon [2]: 2220 M⁻¹ s⁻¹
- Kd [3]: 494 nM
- koff [3]: 0.00136 s⁻¹
- kon [3]: 2800 M⁻¹ s⁻¹

Binder: B2
- Kd [4]: 590 nM
- Kd [5]: 510 nM
- koff [5]: 0.00234 s⁻¹
- kon [5]: 4630 M⁻¹ s⁻¹

Binder: B3
- Kd [4]: 7.2 nM
- koff [4]: 0.000457 s⁻¹
- kon [4]: 68000 M⁻¹ s⁻¹
- Kd [5]: 344 nM
- koff [5]: 0.00149 s⁻¹
- kon [5]: 4400 M⁻¹ s⁻¹

Binder: B4
- binding result [6]: binds
- binding result [7]: binds

Binder: B5
- binding result [7]: binds
